# According to patent US20210269480A1 (published 2021):
# *1 amine or outer side, *2 acyl side, *3 side chain or, on linkers, in order; H or OH if unused. Bridges are numbered along the chain shown (N, C = ends). Where no end group is shown, it is not given here. [ ]: non-standard residue; d: D form. TATA = O=C(CC[*:1])N1CN(C(=O)CC[*:2])CN(C(=O)CC[*:3])C1; 1Nal = N[C@@H](Cc1cccc2ccccc12)C(=O)O; 2Nal = N[C@@H](Cc1ccc2ccccc2c1)C(=O)O; NMehArg = CN[C@@H](CCCCNC(=N)N)C(=O)O; Hyp = O=C(O)[C@@H]1C[C@@H](O)CN1; NMeI = CC[C@H](C)[C@H](NC)C(=O)O; NMeT = CN[C@H](C(=O)O)[C@@H](C)O; dCya = N[C@H](CS(=O)(=O)O)C(=O)O; hArg = N=C(N)NCCCC[C@H](N)C(=O)O; NMeN = CN[C@@H](CC(N)=O)C(=O)O; Agb = N=C(N)NCC[C@H](N)C(=O)O; Nle = CCCC[C@H](N)C(=O)O
# T1: human Nectin-4 (human, UniProt Q96NY8 32-349)
# T1 construct: a Gly32-Ser349 FLAG construct is described only under the SPR assay; also called PVRL4
# T1 sequence (looked up): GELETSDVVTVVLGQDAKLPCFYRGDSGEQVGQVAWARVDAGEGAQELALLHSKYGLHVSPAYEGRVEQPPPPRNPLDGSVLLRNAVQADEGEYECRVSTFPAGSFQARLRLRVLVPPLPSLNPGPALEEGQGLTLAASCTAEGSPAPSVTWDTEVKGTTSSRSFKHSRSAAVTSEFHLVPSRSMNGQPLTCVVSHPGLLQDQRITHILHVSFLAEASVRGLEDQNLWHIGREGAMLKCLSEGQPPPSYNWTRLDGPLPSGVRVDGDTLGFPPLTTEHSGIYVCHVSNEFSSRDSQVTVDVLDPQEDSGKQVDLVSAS
# Target: T1, human Nectin-4
# Experiment: FP competition, tracer SEQ ID NO 217
# Procedure: Peptides were diluted to an appropriate concentration in assay buffer as described in the direct binding assay with a maximum of 5% DMSO, then serially diluted 1 in 2. […] Measurements were conducted as for the direct binding assay, however the gain was determined prior to the first measurement. Data analysis was in Systat Sigmaplot version 12.0 where the mP values were fit to a user defined cubic equation to generate a Ki value: […]
row,Ki [nM],Binder
1,3,Ac-CP[1Nal][dR]CMPDWSTP[Hyp]WC (linker 1-5-15 via TATA) [BCY8193]
2,84,HDSCPFGCMK(Ac)SWSWPIWCA (linker 4-8-18 via TATA) [BCY7273]
3,173,HDSCPFGCMKSWSWPIWCA (linker 4-8-18 via TATA) [BCY3393]
4,33.2,ACPFGCIKSWSWPIWCQME (linker 2-6-16 via TATA) [BCY3397]
5,22.9,"ACPFGCMKNWSWPIWCTN[hArg] (linker 2-6-16 via TATA, also called 80-09-02-T01-N003) [BCY7281]"
6,69,Q[hArg]WCAPLSDYWCNRICA (linker 4-12-16 via TATA) [BCY7278]
7,3.5,Ac-CP[1Nal][dR]CM[Hyp]DWSTP[Hyp]WC (linker 1-5-15 via TATA) [BCY8194]
8,5,Ac-CPF[dD]CM[hArg]NWS[NMeT]PIWC (linker 1-5-15 via TATA) [BCY8157]
9,102,ACPFGCQEHWSWPIWCTTA (linker 2-6-16 via TATA) [BCY3396]
10,20.6,"ACPFGCMKNWSWPIWCTNA (linker 2-6-16 via TATA, also called 80-09-02-T01-N018) [BCY7348]"
11,35,Ac-CPF[dD]CM[NMehArg]NWSTPIWC (linker 1-5-15 via TATA) [BCY8153]
12,219,QK(Ac)WCAPLSDYWCNRICA (linker 4-12-16 via TATA) [BCY7280]
13,90.5,HDSCPFGC[Nle]KSWSWPIWCA (linker 4-8-18 via TATA) [BCY7274]
14,164,ACPFGCQEDWSWPIWCLSE (linker 2-6-16 via TATA) [BCY3398]
15,41,ACPFGCMXNWSWPIWCTNK (core CPFGCM[K(Ac)]NWSWPIWC; TATA on 3 Cys) [BCY7266]
16,5,Ac-CP[1Nal][dR]CM[hArg]DWTTP[Hyp]WC (linker 1-5-15 via TATA) [BCY8187]
17,6.3,Ac-CP[1Nal][dR]CL[hArg]HWSTP[Hyp]WC (linker 1-5-15 via TATA) [BCY8214]
18,3.5,Ac-CP[1Nal][dD]CM[hArg]DWTTP[Hyp]WC (linker 1-5-15 via TATA) [BCY8176]
19,3.5,Ac-CP[1Nal][dR]CL[hArg]DWSTP[Hyp]WC (linker 1-5-15 via TATA) [BCY8213]
20,4.5,Ac-CP[1Nal][dR]CM[hArg]DWSSP[Hyp]WC (linker 1-5-15 via TATA) [BCY8191]
21,302,HDACPFGCMEGWSWPIWCA (linker 4-8-18 via TATA) [BCY3390]
22,102,ACPFGCMKTWSWPIWCTDK (linker 2-6-16 via TATA) [BCY3394]

# Continued, binder first:
row,Binder,Ki [nM]
1,ACWPLDDYWCPRICPQA (linker 2-10-14 via TATA) [BCY3401],154
2,QKWCAPLSDYWCN[hArg]ICA (linker 4-12-16 via TATA) [BCY7279],44.4
3,DSECPFGCMSGWSWPIWCA (linker 4-8-18 via TATA) [BCY3389],99.8
4,Ac-CP[1Nal][dR]CM[Agb]DWSTP[Hyp]WC (linker 1-5-15 via TATA) [BCY8192],5
5,ACPFGCMSDWSWPIWCSTD (linker 2-6-16 via TATA) [BCY3399],410
6,Ac-CP[2Nal][dR]CM[hArg]DWSTP[Hyp]WC (linker 1-5-15 via TATA) [BCY8186],6
7,HDSCPFGCM[hArg]SWSWPIWCA (linker 4-8-18 via TATA) [BCY7275],43.3
8,"ACPFGCMKNWSAPIWCTNK (linker 2-6-16 via TATA, also called 80-09-02-T01-N012) [BCY7342]",310
9,"ACPFGCMKNWSWPIWCANK (linker 2-6-16 via TATA, also called 80-09-02-T01-N016) [BCY7346]",64.9
10,"ACPFGCMKNWSWPIWCTAK (linker 2-6-16 via TATA, also called 80-09-02-T01-N017) [BCY7347]",36.1
11,"ACPFGCMKNWSWPAWCTNK (linker 2-6-16 via TATA, also called 80-09-02-T01-N014) [BCY7344]",39.8
12,[dH]DSCPFGCMKSWSWPIWCA (linker 4-8-18 via TATA) [BCY7272],41
13,Ac-CP[1Nal][dCya]CM[hArg]DWSTP[Hyp]WC (linker 1-5-15 via TATA) [BCY8163],3
14,HDSCPFGCM[dK]SWSWPIWCA (linker 4-8-18 via TATA) [BCY7276],326
15,Ac-CPF[dD]CM[hArg]NWSTP[NMeI]WC (linker 1-5-15 via TATA) [BCY8158],177
16,MDTCPFGCMEDWSWPIWCA (linker 4-8-18 via TATA) [BCY3391],198
17,ACPFGCMKGWSWPIWCLKD (linker 2-6-16 via TATA) [BCY3395],17.4
18,Ac-CP[1Nal][dD]CMPDWSTP[Hyp]WC (linker 1-5-15 via TATA) [BCY8182],2
19,DPGCPFGCMPGWSWPIWCA (linker 4-8-18 via TATA) [BCY3392],36.3
20,Ac-CPF[dD]CM[hArg][NMeN]WSTPIWC (linker 1-5-15 via TATA) [BCY8154],8
21,Ac-CP[1Nal][dD]CM[hArg]HWSTP[Hyp]WC (linker 1-5-15 via TATA) [BCY8125],3.1
22,Ac-CP[1Nal][dR]CM[hArg]HWSTP[Hyp]WC (linker 1-5-15 via TATA) [BCY8129],3.1
23,Ac-CP[1Nal][dR]CM[hArg]NWSTP[Hyp]WC (linker 1-5-15 via TATA) [BCY8128],2.2
24,Ac-CP[1Nal][dD]CM[hArg]DWSSP[Hyp]WC (linker 1-5-15 via TATA) [BCY8180],3
25,Ac-CP[1Nal][dR]CM[hArg]DWDTP[Hyp]WC (linker 1-5-15 via TATA) [BCY8185],26.1
26,Ac-CP[1Nal][dD]CM[hArg]DWDTP[Hyp]WC (linker 1-5-15 via TATA) [BCY8174],12.3
27,Ac-CP[1Nal][dD]CL[hArg]DWSTP[Hyp]WC (linker 1-5-15 via TATA) [BCY8212],3
28,Ac-CP[1Nal][dR]CM[hArg]DWSTP[Hyp]WC (linker 1-5-15 via TATA) [BCY8184],3.2
29,ACPFGCM[hArg]NWSWPIWCTNK (linker 2-6-16 via TATA) [BCY7265],38.3
